The record followed here is patent publication US20170210812A1.

Assay [1] deals with EGFRvIII expressed on cells (human) (UniProt P00533). The assay can be described thus: cell-based or functional assay.
The target of assay [2] is wild-type EGFR expressed on cells (human) (UniProt P00533). The assay is described as follows: cell-based or functional assay.

B1: 42G9/CD3 biFc (bispecific antibody, part only; not given: anti-CD3 arm and Fc, V domains shown, part only)
VH: QVTLKESGPVLLKPTETLTLTCTVSGFSLSNPRMGVSWIRQPPGKALEWFAHIFSTDEKSLKLSLRSRLTLSKDTSKSQVVLTMTNMAPVDSATYYCARDSSNYEGYFDFWGQGTLVTVSS
VL: EVVLTQSPATLSVSPGERATLSCRASQSVRSNLAWYQQKSGQAPRLLIYGSTIRATGVPARFSGSGSGTEFTLTISSLQSEDFAVYYCQQYSDWPFTFGPGTKVDIK
As for B1, in assay [1], the percentage of live target cells, LN229-EGFRvIII with activated T cells, 0.01 nM antibody was 35%. The percentage of live target cells, parental LN229 with activated T cells, 0.01 nM antibody in assay [2] is 100%.

B2: h62G7-EQ/L6/CD3 biFc (bispecific antibody, part only; not given: anti-CD3 arm and Fc, V domains shown, part only)
VH: QVQLVQSGAEVKKPGASVKVSCKASGYTFTDYTLHWVRQAPGQGLEWMGGIWPITGGTTYNQKFKGRVTMTRDTSTSTVYMELSSLRSEDTAVYYCARGEAQGSWGQGTLVTVSS
VL: DVVMTQSPLSLPVTLGQPASISCKSSQSLLYSNGKTYLNWFQQRPGQSPRRLIYQVSKLDSGVPDRFSGSGSGTDFTLKISRVEAEDVGVYYCGQDTHFPLTFGGGTKVEIK
On to B2, for which, in assay [1], the percentage of live target cells, DKMG with activated T cells, 1 nM antibody was 35% and the percentage of live target cells, LN18-EGFRvIII with activated T cells, 0.01 nM antibody stood at 20%. Further, in assay [2], the percentage of live target cells, parental LN18 with activated T cells, 0.01 nM antibody worked out at 100%.
